Reference: patent US20250009852A1, “DEPLETING EGFR AND HER2 OVERCOMES RESISTANCE TO EGFR INHIBITORS IN COLORECTAL CANCER” (Health Research, Inc., priority 2021, published 2025)

Columns and labels:
[1] = system: PI3K; test: PI3K activity assay (PI3-Kinase Activity ELISA) in cell lysates; assay type: cell-based, human; conditions: 25 nM, 48 h
Description: PI3K activity was measured using a PI3-Kinase Activity ELISA Kit from Echelon Biosciences, following manufacturer's instruction. Briefly, PI3K was pulled down from whole cell lysates using an antibody for PI3K/p85. Each sample was prepared from approximately 1×10^6 cells. The entire immunoprecipitate from each sample was mixed with 30 μl of KBZ reaction buffer, which was then mixed with 30 μl of 10 μM PI(4,5)P2 substrate and incubated for 2 h at 37° C. The kinase reaction was terminated by adding 90 μl of kinase stop solution to each reaction solution, and 60 μl of each mixture was transferred together with 60 μl of PIP3 detector to a well in the incubation plate. After incubation at RT for 1 h, 100 μl per sample from the incubation plate was transferred to the detection plate and incubated for 1 h at RT. The detection plate was washed with TBST, incubated with the HRP-conjugated secondary detector for 30 min, washed again with TBST, and the immobilized HRP was measured by a standard colorimetric assay, using 3,3′,5,5′-tetramethylbenzedine as a substrate and a Synergy 2 Multi-Mode Microplate Reader to record absorbance.

[2] = system: EGFR^R451C, EGFR^K467T, EGFR^S492R and WT EGFR; test: Western blotting of SW620 cells transfected with EGFR or its mutant; assay type: cell-based, human; conditions: 25 nM for 48 h, extent very similar to WT EGFR
From the text: pGL4.51[luc2/CMV/Neo] was purchased from Promega (Cat #E132A). pCMV6-A-EGFR-puro, reported previously, was used as a template to generate single point mutations of EGFR, including R451C, K467T, and S492R, using the QuikChange Lightning Site-Directed Mutagenesis Kit (Agilent Technologies). The primers were purchased from IDT, including primers for generating EGFR^R451C (forward: 5′-[…]-3 (SEQ ID NO:2); reverse: 5′-[…]-3′ (SEQ ID NO:3), EGFR^K467T(forward: 5-[…]-3′ (SEQ ID NO:4); reverse: 5′-[…]-3′ (SEQ ID NO:5), and EGFR^S492R (forward: 5′-[…]-3′ (SEQ ID NO:6); reverse: 5′-[…]-3′ (SEQ ID NO:7)). All constructs were confirmed by DNA sequence analysis.
Transfection of pCMV6-A-puro-EGFR, pCMV6-A-puro-EGFR^R451C, pCMV6-A-puro-EGFR^K467T or pCMV6-A-puro-EGFR^RS492R was performed using Lipofectamine 3000. SW620 cells were grown in 6-well plates (3×10^5 cells/well with 2 ml medium) for 24 h and then transfected with a plasmid at 1 μg DNA per well for 48 h. […]
Protein concentrations in all samples were measured using the BCA Assay Kit. […] Proteins were transferred to polyvinylidene fluoride membrane, probed with specific antibodies, and detected using either Luminata Classico (Millipore) or Luminata Cresendo (Millipore). […] The beads were washed three times with IP buffer, suspended in 2× SDS loading buffer, boiled for 5 min, and analyzed by Western blotting.

[3] = system: EGFR and HER2; test: Western blotting of whole cell lysates: EGFR and HER2; assay type: cell-based, human; conditions: 25 nM
Description: (§1) To prepare whole cell lysates, cells were washed with PBS twice, mixed with 1× cell lysis buffer from Cell Signaling Technology supplemented with 2 mM PMSF and a protease inhibitor cocktail from Roche Applied Science, placed on ice for 10 min, sonicated at 0-4° C. to enhance cell lysis using a Branson Model 450 sonifier, and finally centrifuged at 13,000 g for 10 min at 4° C., and the supernatant fraction is collected as whole cell lysate. Tumor and samples were mixed with RIPA buffer (25 mM Tris-HCl, PH7.6, 150 mM NaCl, 1% Nonidet P-40, 1% sodium deoxycholate, and 0.1% SDS), which was supplemented with 2 mM PMSF, the protease inhibitor cocktail mentioned above, phosphatase inhibitor cocktail 2 and phosphatase inhibitor cocktail 3 from Sigma-Aldrich at 14.3 μl buffer per mg tissue, and homogenized in a Dounce homogenizer. The homogenates were cleared by centrifugation at 13,000 g for 15 min at 4° C.
(§2) Protein concentrations in all samples were measured using the BCA Assay Kit. For Western blotting, each sample was mixed with 4× loading dye, heated for 5 min at 95° C., and resolved by SDS-PAGE (8-12.5%). Proteins were transferred to polyvinylidene fluoride membrane, probed with specific antibodies, and detected using either Luminata Classico (Millipore) or Luminata Cresendo (Millipore). For IP, cell lysates (0.5 mg protein/sample) were incubated with a desired antibody overnight at 4° C., followed by incubation of 500 μl sample with 30 μl G-Sepharose beads (2 mg/ml) for 1 h at RT. The beads were washed three times with IP buffer, suspended in 2× SDS loading buffer, boiled for 5 min, and analyzed by Western blotting.

[4] = biological target: T1, EGFR and HER2 (Homo sapiens, UniProt P00533); test: as above; assay type: cell-based; conditions: HCT116, HT29 and SW48 cells, medium with 10% serum, 25 nM
T1 construct: Both EGFR and HER2 were expressed in HCT116, HT29, and SW48 cells; endogenous in cells; host or cells: HCT116, HT29, SW48 (SW620 lacks both)
Description: as §1, §2

[5] = system: EGFR; test: Immunofluorescence staining and confocal microscopy of EGFR trafficking in SW48 cells; assay type: cell-based, human; conditions: serum-free medium, 25 nM, up to 6 h
Description: SW48 cells were grown in chamber slides (4×10^4 cells/well) overnight with or without subsequent treatment with PEPD^G278D (25 nM) and/or chloroquine (25 μM) for up to 6 h. The cells were then washed with ice-cold PBS, fixed with 4% paraformaldehyde for 20 min at room temperature (RT), washed again with ice-cold PBS and blocked with 1% BSA in PBS for 1 h at RT. The cells were then incubated with an EGFR antibody, a His tag antibody for detection of PEPD^G278D, and/or a LAMP1 antibody overnight at 4° C., washed with PBS, incubated with a secondary antibody conjugated to Alexa-Fluor 488 or Alexa-Fluor 647 antibody for 1 h at RT and washed again with PBS. The cells were then examined with a BZ-X700 fluorescence microscope (Keyence) with a S PL FL ELWD ADM 40xC objective. Merged images from Z-stack were organized using the ImageJ software (NIH Image).

B1: PEPD^G278D: recombinant and enzymatically inactive mutant of human peptidase D (PEPD), with replacement of glycine 278 by aspartic acid (protein)
chain: AAATGPSFWLGNETLKVPLALFALNRQRLCERLRKNPAVQAGSIVVLQGGEETQRYCTDTGVLFLQESFFHWAFGVTEPGCYGVIDVDTGKSTLFVPRLPASHATWMGKIHSKEHFKEKYAVDDVQYVDEIASVLTSQKPSVLLTLRGVNTDSGSVCREASFDGISKFEVNNTILHPEIVESRVFKTDMELEVLRYTNKISSEAHREVMKAVKVGMKEYGLESLFEHYCYSRGGMRHSSYTCICGSGENSAVLHYGHAGAPNDRTIQNGDMCLFDMDGEYYSVASDITCSFPRNGKFTADQKAVYEAVLLSSRAVMGAMKPGDWWPDIDRLADRIHLEELAHMGILSGSVDAMVQAHLGAVFMPHGLGHFLGIDVHDVGGYPEGVERIDEPGLRSLRTARHLQPGMVLTVEPGIYFIDHLLDEALADPARASFLNREVLQRFRGFGGVRIEEDVVVIDSGIELLTCVPRTVEEIEACMAGCDKAFTPFSGPK
modifications: left off: small tags and cut ends
inhibition of PI3K activity ([1]; HCT116 cells): 74% | inhibition of PI3K activity ([1]; HT29 cells): 71% | inhibition of PI3K activity ([1]; SW48 cells): 76% | inhibition of PI3K activity ([1]; SW620 cells): not in SW620 cells | downregulation (expression and phosphorylation) of each EGFR mutant R451C, K467T, S492R [2]: strongly downregulated | HER2 level ([3]; HCT116, HT29 and SW48 cells, medium with 10% serum, 3 h): decreased markedly | expression and tyrosine phosphorylation of EGFR and HER2 ([3]; SW48, HCT116 and HT29 cells, 48 h): obliterated | EGFR and HER2 level ([3]; serum-free medium, 3 h): marked decrease | EGFR level ([4]; 6 h): no decrease | EGFR level ([4]; 24 h): profound decrease | EGFR internalization and lysosomal degradation [5]: induces EGFR internalization and lysosomal degradation
